The text below walks through data of paper PMC3965382.

In the assay the target is T1, purified Gαs, P63092.
T1 chain: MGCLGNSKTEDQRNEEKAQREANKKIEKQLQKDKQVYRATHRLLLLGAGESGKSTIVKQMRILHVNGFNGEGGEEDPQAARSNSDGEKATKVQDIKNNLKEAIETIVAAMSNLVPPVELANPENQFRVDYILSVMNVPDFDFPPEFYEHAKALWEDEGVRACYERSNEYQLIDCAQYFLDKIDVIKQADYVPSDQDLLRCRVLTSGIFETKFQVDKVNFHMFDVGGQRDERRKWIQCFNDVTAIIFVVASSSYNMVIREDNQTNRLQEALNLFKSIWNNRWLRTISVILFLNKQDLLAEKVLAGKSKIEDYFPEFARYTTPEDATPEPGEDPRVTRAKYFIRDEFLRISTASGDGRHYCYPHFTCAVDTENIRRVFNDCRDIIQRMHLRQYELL
The experiment in a line: SPR. To be noted: chain shown with the change, read off a plot.

B1: wild-type coronin 1, HA-tagged, O89053 K20A; R69A; K355A; E102A (protein)
chain: MSRQVVRSSKFRHVFGQPAAADQCYEDVRVSQTTWDSGFCAVNPKFMALICEASGGGAFLVLPLGKTGAVDKNVPLVCGHTAPVLDIAWCPHNDNVIASGSADCTVMVWEIPDGGLVLPLREPVITLEGHTKRVGIVAWHPTAQNVLLSAGCDNVILVWDVGTGAAVLTLGPDVHPDTIYSVDWSRDGALICTSCRDKRVRVIEPRKGTVVAEKDRPHEGTRPVHAVFVSEGKILTTGFSRMSERQVALWDTKHLEEPLSLQELDTSSGVLLPFFDPDTNIVYLCGKGDSSIRYFEITSEAPFLHYLSMFSSKESQRGMGYMPKRGLEVNKCEIARFYKLHERKCEPIAMTVPRASDLFQEDLYPPTAGPDPALTAEEWLGGRDAGPLLISLKDGYVPPKSRELRVNRGLDSARRRATPEPSGTPSSDTVSRLEEDVRNLNAIVQKLQERLDRLEETVQAK
Consider B1, for which the response reads like this: (500 nM coronin 1 injected over immobilized Gαs, parent: est. 120) 25 RU; (1000 nM coronin 1 injected over immobilized Gαs, parent: est. 400) 76 RU.
